From patent WO2025037032A1

Target: coagulation Factor VIII (human) (UniProt P00451)
Test: VWF:FVIIIB enzyme immunoassay; VWF of human plasma captured with rabbit anti-human VWF F(ab')2, bound FVIII detected; plasma pre-incubated 17 h at 37°C with 200 or 600 nM one-arm anti-VWF CK domain antibodies

UniProt P00451, sequence (P00451 20-2351): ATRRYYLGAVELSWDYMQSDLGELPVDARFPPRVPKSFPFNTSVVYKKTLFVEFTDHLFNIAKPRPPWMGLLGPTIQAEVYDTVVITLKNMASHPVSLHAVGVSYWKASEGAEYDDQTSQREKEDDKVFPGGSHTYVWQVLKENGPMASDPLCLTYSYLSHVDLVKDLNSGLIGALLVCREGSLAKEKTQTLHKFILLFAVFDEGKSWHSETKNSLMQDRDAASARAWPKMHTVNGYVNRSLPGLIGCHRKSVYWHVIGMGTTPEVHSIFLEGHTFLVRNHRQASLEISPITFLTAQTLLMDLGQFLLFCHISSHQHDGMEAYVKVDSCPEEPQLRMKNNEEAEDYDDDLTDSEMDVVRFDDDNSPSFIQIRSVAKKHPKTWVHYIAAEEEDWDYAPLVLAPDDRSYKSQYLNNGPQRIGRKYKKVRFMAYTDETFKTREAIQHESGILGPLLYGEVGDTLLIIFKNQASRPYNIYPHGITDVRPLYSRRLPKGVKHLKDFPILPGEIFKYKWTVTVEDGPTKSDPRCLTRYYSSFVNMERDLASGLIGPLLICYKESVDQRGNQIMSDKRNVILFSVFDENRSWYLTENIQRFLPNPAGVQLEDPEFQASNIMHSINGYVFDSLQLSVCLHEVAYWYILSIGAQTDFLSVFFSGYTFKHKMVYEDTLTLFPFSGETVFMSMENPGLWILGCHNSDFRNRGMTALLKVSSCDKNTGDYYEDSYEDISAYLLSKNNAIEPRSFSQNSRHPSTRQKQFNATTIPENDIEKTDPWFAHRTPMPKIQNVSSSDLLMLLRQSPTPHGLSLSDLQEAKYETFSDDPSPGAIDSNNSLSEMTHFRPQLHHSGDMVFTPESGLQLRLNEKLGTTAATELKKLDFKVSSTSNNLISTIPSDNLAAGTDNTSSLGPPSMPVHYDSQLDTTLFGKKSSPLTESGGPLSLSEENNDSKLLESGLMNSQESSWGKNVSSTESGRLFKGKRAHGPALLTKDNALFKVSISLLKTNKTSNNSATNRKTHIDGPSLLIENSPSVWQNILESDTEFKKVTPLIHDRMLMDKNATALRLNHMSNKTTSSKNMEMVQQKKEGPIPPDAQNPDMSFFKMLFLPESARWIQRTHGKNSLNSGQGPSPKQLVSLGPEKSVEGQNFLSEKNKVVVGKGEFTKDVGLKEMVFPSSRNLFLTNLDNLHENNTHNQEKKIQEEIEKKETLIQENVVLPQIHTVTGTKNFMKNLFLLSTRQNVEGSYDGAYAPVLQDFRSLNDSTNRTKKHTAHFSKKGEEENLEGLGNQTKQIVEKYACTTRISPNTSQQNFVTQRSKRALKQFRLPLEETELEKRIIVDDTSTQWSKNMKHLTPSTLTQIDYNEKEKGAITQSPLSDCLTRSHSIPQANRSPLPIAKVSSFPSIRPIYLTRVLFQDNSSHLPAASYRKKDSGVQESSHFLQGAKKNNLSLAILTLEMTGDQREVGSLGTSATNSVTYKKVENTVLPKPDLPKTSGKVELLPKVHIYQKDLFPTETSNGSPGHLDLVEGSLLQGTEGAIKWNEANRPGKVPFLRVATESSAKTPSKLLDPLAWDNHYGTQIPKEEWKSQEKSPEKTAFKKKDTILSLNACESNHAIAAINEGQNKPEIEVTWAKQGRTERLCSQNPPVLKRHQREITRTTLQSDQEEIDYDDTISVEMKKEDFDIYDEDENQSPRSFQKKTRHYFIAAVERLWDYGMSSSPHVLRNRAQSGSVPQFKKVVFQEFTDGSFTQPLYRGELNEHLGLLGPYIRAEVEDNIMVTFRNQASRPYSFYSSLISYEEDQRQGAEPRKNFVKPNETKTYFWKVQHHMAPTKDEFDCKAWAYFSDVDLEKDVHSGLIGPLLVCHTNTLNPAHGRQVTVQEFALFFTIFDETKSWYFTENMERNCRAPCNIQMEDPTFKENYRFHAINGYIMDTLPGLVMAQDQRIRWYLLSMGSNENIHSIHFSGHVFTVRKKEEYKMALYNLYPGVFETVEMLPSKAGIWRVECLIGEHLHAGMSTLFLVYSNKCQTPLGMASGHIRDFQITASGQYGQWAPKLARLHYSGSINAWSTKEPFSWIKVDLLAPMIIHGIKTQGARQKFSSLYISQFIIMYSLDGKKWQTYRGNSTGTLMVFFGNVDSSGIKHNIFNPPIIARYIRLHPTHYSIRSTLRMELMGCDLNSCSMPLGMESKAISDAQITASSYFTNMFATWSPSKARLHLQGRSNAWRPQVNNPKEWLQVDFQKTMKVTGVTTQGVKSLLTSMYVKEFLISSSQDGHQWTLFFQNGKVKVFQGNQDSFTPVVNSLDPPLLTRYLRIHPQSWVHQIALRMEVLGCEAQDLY

mean level of VWF:FVIII relative to untreated donor-matched plasma: > 80%
Substance: human plasma-derived VWF (from UniProt P04275 764-2813)
